From article doi:10.1101/452904 (bioRxiv, 2018)

Biological target: FLAG-Sec23A (human, UniProt Q15436 1-765)
Assay: pull-down

Sequence of FLAG-Sec23A (Q15436 whole entry): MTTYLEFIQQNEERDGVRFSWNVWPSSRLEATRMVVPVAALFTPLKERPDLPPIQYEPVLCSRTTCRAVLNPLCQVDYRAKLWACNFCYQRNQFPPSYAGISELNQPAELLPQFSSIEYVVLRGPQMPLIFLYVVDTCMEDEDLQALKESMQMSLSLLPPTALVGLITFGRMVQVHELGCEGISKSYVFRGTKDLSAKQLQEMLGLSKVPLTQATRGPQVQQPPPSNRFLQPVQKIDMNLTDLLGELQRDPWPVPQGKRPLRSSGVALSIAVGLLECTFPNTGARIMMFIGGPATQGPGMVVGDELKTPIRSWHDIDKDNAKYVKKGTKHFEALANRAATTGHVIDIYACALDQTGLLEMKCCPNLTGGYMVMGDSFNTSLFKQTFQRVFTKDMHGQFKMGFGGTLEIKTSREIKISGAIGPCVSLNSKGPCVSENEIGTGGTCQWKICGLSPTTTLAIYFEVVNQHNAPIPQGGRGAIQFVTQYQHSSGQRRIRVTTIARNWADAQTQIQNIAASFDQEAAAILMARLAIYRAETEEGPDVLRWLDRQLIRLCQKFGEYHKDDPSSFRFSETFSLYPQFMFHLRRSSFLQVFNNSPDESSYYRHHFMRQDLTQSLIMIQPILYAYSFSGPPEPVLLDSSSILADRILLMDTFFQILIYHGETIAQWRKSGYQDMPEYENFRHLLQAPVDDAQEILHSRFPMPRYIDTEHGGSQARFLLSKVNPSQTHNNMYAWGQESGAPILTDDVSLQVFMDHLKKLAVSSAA

- binding result: binds
B1: GST-tagged TANGO1-PRD (1651–1907 aa)-His6 (domain or fragment)
chain: NTQNPPRRGPLSQNGSFGPSPVSGGECSPPLTVEPPVRPLSATLNRRDMPRSEFGSVDGPLPHPRWSAEASGKPSPSDPGSGTATMMNSSSRGSSPTRVLDEGKVNMAPKGPPPFPGVPLMSTPMGGPVPPPIRYGPPPQLCGPFGPRPLPPPFGPGMRPPLGLREFAPGVPPGRRDLPLHPRGFLPGHAPFRPLGSLGPREYFIPGTRLPPPTHGPQEYPPPPAVRDLLPSGSRDEPPPASQSTSQDCSQALKQSP
